From publication PMC9739371, “Deciphering the Binding of the Nuclear Localization Sequence of Myc Protein to the Nuclear Carrier Importin α3” (International Journal of Molecular Sciences, 2022)
Where “and” joins values, the source holds several entries; their conditions need not be identical. Equal values may be shown once.

Columns and labels:
[1] = target: T1, IBB-depleted species of importin α3 (residues 64-521 of the intact protein) (human, UniProt O00629 64-521); experiment: BLI; BLItz system; His-tagged Impα3 or ΔImpα3 immobilised on His-tag biosensors at 0.5 µM; NLS-Myc 1 to 7 µM in solution; 10x kinetics buffer of the manufacturer; 25 °C; kon and koff from a pseudo-first-order plot; conditions: both partners purified
T1 construct: also called ΔImpα3; truncated species of Impα3; source: purified as previously described [18,19,20]
T1 sequence (looked up): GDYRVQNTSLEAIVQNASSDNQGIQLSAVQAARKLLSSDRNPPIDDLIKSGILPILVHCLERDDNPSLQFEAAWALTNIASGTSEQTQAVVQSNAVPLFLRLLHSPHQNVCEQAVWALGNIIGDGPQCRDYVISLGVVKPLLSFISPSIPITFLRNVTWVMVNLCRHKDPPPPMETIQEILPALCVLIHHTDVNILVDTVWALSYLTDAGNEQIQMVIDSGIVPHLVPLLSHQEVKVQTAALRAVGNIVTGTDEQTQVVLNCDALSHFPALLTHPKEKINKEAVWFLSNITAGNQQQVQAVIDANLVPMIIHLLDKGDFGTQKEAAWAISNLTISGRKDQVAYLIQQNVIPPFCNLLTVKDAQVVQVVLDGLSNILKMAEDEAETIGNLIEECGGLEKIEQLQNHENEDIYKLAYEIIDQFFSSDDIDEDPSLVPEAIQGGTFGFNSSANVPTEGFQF

[2] = target: T2, human importin α3 isoform (residues 1-521) (human, UniProt O00629 1-521); experiment: as above; conditions: both partners purified
T2 construct: importin α3 (Impα3), human, residues 1-521, with the N-terminal IBB domain; also called Impα3; source: purified as previously described [18,19,20]
T2 sequence (looked up): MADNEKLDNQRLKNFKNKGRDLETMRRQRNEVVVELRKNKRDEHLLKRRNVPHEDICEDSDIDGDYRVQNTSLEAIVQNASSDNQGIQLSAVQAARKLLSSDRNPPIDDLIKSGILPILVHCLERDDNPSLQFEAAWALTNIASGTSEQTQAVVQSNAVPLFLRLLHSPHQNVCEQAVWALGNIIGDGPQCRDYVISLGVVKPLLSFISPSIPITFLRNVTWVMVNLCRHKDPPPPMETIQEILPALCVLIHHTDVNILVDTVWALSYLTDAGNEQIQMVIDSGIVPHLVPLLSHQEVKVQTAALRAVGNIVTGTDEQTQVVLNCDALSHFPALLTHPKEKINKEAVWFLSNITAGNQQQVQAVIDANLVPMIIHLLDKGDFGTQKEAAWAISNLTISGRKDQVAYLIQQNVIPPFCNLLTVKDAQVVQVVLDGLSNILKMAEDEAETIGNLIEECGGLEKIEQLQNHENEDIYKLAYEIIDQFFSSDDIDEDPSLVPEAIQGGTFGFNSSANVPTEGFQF

B1: NLS-Myc peptide (Ala310-Asn339 of human c-Myc) (peptide)
peptide: AAPPSTRKDYPAAKRVKLDSVRVLRQISNN
notes: human c-Myc, residues Ala310-Asn339: canonical NLS Pro320-Asp328 with the flanking residues of native Myc; also called the peptide; source: synthetic peptide, produced by NZYtech (Lisbon, Portugal), purity larger than 95%
[1]
  Kd: 60 ± 30 nM
[2]
  Kd: 500 nM and 600 nM
